{"source": "patent EP2057188B1", "key": {"[1]": {"target": "T1, GIP Receptor (Rattus norvegicus (Rat)), P43219", "T1 chain": "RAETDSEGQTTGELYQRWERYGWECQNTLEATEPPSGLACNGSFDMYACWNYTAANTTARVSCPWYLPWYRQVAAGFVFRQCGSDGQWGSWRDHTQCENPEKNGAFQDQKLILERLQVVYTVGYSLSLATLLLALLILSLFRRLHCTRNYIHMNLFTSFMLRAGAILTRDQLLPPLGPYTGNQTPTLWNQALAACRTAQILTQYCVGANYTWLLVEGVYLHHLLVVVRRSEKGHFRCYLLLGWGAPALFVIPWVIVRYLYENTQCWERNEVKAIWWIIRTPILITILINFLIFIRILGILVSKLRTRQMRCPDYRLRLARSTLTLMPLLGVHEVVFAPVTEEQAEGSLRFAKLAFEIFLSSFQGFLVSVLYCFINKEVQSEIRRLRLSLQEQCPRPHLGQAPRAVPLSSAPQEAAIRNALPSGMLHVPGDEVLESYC", "experiment": "GIP RBA, RIN"}, "[2]": {"target": "T1, GIP Receptor (Rattus norvegicus (Rat)), …", "experiment": "cell-based or functional assay"}, "[3]": {"target": "T2, human GIP receptor (human), P48546", "T2 chain": "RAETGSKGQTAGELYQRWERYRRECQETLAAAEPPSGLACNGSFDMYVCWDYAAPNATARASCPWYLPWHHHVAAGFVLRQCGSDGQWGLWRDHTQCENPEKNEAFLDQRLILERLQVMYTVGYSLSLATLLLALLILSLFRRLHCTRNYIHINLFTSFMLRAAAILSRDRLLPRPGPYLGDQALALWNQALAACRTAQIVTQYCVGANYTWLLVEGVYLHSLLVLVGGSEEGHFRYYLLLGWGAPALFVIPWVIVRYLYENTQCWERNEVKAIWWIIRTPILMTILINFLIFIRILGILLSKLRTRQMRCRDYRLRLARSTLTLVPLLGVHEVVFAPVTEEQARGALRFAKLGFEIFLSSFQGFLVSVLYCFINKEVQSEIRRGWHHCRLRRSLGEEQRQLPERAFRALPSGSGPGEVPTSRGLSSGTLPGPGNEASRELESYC", "experiment": "125I-GIP displacement, HEK-GIPR"}, "[4]": {"target": "T2, human GIP receptor (human), P48546", "experiment": "125I-GIP displacement, 10 nM analog, HEK-GIPR"}, "[5]": {"target": "T2, human GIP receptor (human), P48546", "experiment": "125I-GIP displacement, HEK-GIPR"}, "[6]": {"target": "T1, GIP Receptor (Rattus norvegicus (Rat)), …", "experiment": "cell-based or functional assay"}, "[7]": {"target": "T1, GIP Receptor (Rattus norvegicus (Rat)), …", "experiment": "GIP RBA"}}, "note": "“And” between values parts separate entries of the source, which are not always exact repeats. Identical values can stand only once. Like-named read-outs stand apart in the source and are kept apart here.", "data": [{"binder": "YSDGTFISDYSIAMDKIHQQDFVNWLLAQKPKKIRYS (modifications not checked)", "note": "[0601GIP4386]", "values": [{"measurement": "IC50", "setting": "[1]", "result": 156, "unit": "nM"}, {"measurement": "GIPR Cyclase", "setting": "[2]", "result": 56}]}, {"binder": "YAEGTFISDYSIAMDKIHQQDFVNWLLAQKPKKIRYS (modifications not checked)", "note": "[0601GIP4233]", "values": [{"measurement": "IC50", "setting": "[3]", "result": 0.21, "unit": "nM"}, {"measurement": "%Inh 10nM", "setting": "[4]", "result": 89, "unit": "%"}, {"measurement": "IC50", "setting": "[5]", "result": "0.12 nM and 0.41 nM"}]}, {"binder": "YAEGTFISDYSIAMDKIHQQDFVNWLLAQKPSSGAPPPS (modifications not checked)", "note": "[0601GIP4178]", "values": [{"measurement": "IC50", "setting": "[3]", "result": 0.17, "unit": "nM"}, {"measurement": "Cyclase", "setting": "[2]", "result": 96}, {"measurement": "Cyclase", "setting": "[6]", "result": 36.2}]}, {"binder": "YAEGTFISDYSIAMDKIHQQDFVNWLLAQKPSSGAPPPS (modifications not checked)", "note": "[0601GIP4252]", "values": [{"measurement": "Cyclase", "setting": "[6]", "result": 154}, {"measurement": "IC50", "setting": "[7]", "result": 5.6, "unit": "nM"}]}]}
